In patent CN113321729A (DONGDA BIOTECHNOLOGY SUZHOU CO LTD, dated 2021):

T1: 携带组氨酸标签的人IL-12(IL-12-His) (human, UniProt P29459 23-219; P29460 23-328)
T1 construct: Recombinant His-tagged human IL-12 made in mammalian cells; Coated on the plate in the ELISA; also called IL-12蛋白; biotin标记的IL-12-His
T1 sequence (looked up) 1: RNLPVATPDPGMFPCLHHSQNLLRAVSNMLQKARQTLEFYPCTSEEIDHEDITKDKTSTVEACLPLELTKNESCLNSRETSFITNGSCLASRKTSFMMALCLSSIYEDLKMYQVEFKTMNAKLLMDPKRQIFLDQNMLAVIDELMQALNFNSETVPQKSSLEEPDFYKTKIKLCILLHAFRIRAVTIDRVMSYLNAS
T1 sequence (looked up) 2: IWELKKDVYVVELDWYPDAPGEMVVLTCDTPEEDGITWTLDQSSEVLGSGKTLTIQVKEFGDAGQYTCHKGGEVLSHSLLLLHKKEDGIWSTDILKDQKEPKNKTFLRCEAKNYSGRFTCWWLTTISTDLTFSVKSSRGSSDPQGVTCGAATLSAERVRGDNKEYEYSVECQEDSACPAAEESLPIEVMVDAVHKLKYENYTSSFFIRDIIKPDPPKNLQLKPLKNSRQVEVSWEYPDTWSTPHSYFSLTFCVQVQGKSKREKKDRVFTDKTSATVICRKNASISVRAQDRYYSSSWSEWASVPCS


Experiments:
[1] = biological target: T1, 携带组氨酸标签的人IL-12(IL-12-His); experiment: FACS, blocking of biotin-labelled IL-12-His binding to CHO-IL-12R cells
[2] = biological target: T1, 携带组氨酸标签的人IL-12(IL-12-His); experiment: ELISA, IL-12-His coated on plate
[3] = biological target: T1, 携带组氨酸标签的人IL-12(IL-12-His); experiment: ELISA, IL-12-His coated on plate; remark: listed apart in the source

IC50 [1] [µg/mL]	EC50 [2] [µg/mL]	binding result [3]	Binder
0.323	0.0517	–	hu11B4 (antibody, V domains shown, also called 11B4人源化抗体; 人源化抗体11B4) VH: QVQLVQSGAEVKKPGASVKVSCKASGYAFTDYKMHWVRQAPGQRLEWIGHIYTYNGGADYNQKFKNRATLTVDISASTAYMELSSLRSEDTAVYYCATSGPFAYWGQGTLVTVSS VL: EIVMTQSPATLSVSPGERATLSCKASQNVGTNVAWYQQKPGQAPRALIYSASKRFSGIPARFSGSGSGTEFTLTISSLQSEDFAVYYCLQYNNFPFTFGQGTKLEIK
0.398	0.0571	–	hu2A3 (antibody, V domains shown, also called 2A3人源化抗体; 人源化抗体2A3) VH: QVQLVQSGAEVKKPGASVKVSCKASGFNIKDTYMHWVRQAPGQRLEWIGKIDPANGNTKYDPKFQGRATITADTSASTAYMELSSLRSEDTAVYYCSRRFYDSGFYYYFYIWGQGTLVTVSS VL: not shown

Continued, binder first:

Binder	IC50 [1] [µg/mL]	EC50 [2] [µg/mL]	binding result [3]
1B6 (antibody, V domains shown, Mouse hybridoma antibody purified on Protein A; also called IL-12杂交瘤抗体) VH: not shown VL: NIVMTQTPKFLLVSAGDRVTITCKASQSVSNDVAWYQQKPGQSPKLLIYYASNRYTGVPDRFTGSGYGTDFTFTISTVQAEDLAVYFCQQDYTSPWTFGGGTKLEIK	–	–	binds
Ustekinumab (antibody, V domains shown) VH: EVQLVQSGAEVKKPGESLKISCKGSGYSFTTYWLGWVRQMPGKGLDWIGIMSPVDSDIRYSPSFQGQVTMSVDKSITTAYLQWNSLKASDTAMYYCARRRPGQGYFDFWGQGTLVTVSS VL: DIQMTQSPSSLSASVGDRVTITCRASQGISSWLAWYQQKPEKAPKSLIYAASSLQSGVPSRFSGSGSGTDFTLTISSLQPEDFATYYCQQYNIYPYTFGQGTKLEIK	0.224	0.0718	–
19A4 (antibody, V domains shown, Mouse hybridoma antibody purified on Protein A; also called IL-12杂交瘤抗体) VH: EVQLVESGGGLVKPGGSLQVSCAASGFSFSSYGMSWVRQTPDKRLEWVATIGSGGLYTYSPDTVKGRFSISRDDAKNTLYLQMNSLTSEDTAMYYCATSGPFAYWGQGTLVTVSA VL: DIKMTQSPSSMYASLGERVTITCKASQDINRNLNWFQQKPGNSPKTLIIRTNRLVDGVPSRFSGSGSGQVYSLTVSSLEFGDMGIYFCLQFDEFPWTFGGGTTLEIK	–	–	binds
2A3 (antibody, V domains shown, Mouse hybridoma antibody purified on Protein A; also called IL-12杂交瘤抗体) VH: EVQLQQSGAELVKPGASVKLSCTASGFNIKDTYMHWLKQRPEQGLEWIGKIDPANGNTKYDPKFQGKATITADTSSNTAYLQLSSLTSEDTAVYYCSRRFYDSGFYYYFYIWGAGTTVTVSS VL: NIMMTQSPSSLAVSAGEKVTMYCKSSQSVLYSSNQKNYLAWYQQKPGQSPKLLISWASTRESGVPDRFTGSGSGTDFTLTISSVQAEDLAVYYCHQYLSSLTFGAGTKLELK	–	–	binds
9E2 (antibody, V domains shown, Mouse hybridoma antibody purified on Protein A; also called IL-12杂交瘤抗体) VH: EVQLQQSGAELVRPGASVKLSCTASGVNIKDYYMHWVKQRPEKGLEWIGMIDPEDGDTEYAPRFQAKATMTADTSSNTAYLQLNSLTSEDTAVYYCTITTVVRYFDVWGTGTTVRVSS VL: DLVLSQSPATLSVTPGDSVSLSCRASQSISINLHWYQQKSHESPRLLIKYASQSISGIPSRFSGSGSGTDFTLSINSVETEDFGMYFCQQSNSWPFTFGGGTKLEIK	–	–	binds
